Assay results as given in article PMC11969024 (2025).

B1: peptide HD2 (from tick evasin EVA4) / CCL1 (biotinylated, synthetic) (parent complex)
chain 1: EEDDYTAYAPLTCYFT
chain 2: KSMQVPFSRCCFSFAEQEIPLRAILCYRNTSSICSNEGLIFKLKRGKEACALDTVGWVQRHRKMLRHCPSKRK
B2: peptide HD2 (from tick evasin EVA4) / CCL18 (biotinylated, synthetic) (parent complex)
chain 1: EEDDYTAYAPLTCYFT
chain 2: AQVGTNKELCCLVYTSWQIPQKFIVDYSETSPQCPKPGVILLTKRGRQICADPNKKWVQKYISDLKLNA

Variants of: B1

| Variant | enrichment |
| --- | --- |
| chain 1 EEDMYTAYAPLTCYFT [chain 1 D4M] | -5.27 log2 (difference from the parental peptide) |
| chain 1 EEPDYTAYAPLTCYFT [chain 1 D3P] | -2.66 log2 (difference from the parental peptide) |
| chain 1 EEQDYTAYAPLTCYFT [chain 1 D3Q] | -3.22 log2 (difference from the parental peptide) |
| chain 1 EEMDYTAYAPLTCYFT [chain 1 D3M] | -2.32 log2 (difference from the parental peptide) |
| chain 1 EEIDYTAYAPLTCYFT [chain 1 D3I] | -4.23 log2 (difference from the parental peptide) |
| chain 1 EEFDYTAYAPLTCYFT [chain 1 D3F] | -4 log2 (difference from the parental peptide) |
| chain 1 EEHDYTAYAPLTCYFT [chain 1 D3H] | -3.87 log2 (difference from the parental peptide) |
| chain 1 EEYDYTAYAPLTCYFT [chain 1 D3Y] | -2.01 log2 (difference from the parental peptide) |
| chain 1 EELDYTAYAPLTCYFT [chain 1 D3L] | -3.89 log2 (difference from the parental peptide) |
| chain 1 EEDDYTAYVPLTCYFT [chain 1 A9V] | -7.56 log2 (difference from the parental peptide) |
| chain 1 EEDDYTAYTPLTCYFT [chain 1 A9T] | -4.64 log2 (difference from the parental peptide) |
| chain 1 EEDDYTAYIPLTCYFT [chain 1 A9I] | -6.64 log2 (difference from the parental peptide) |
| chain 1 EEDDYTAYPPLTCYFT [chain 1 A9P] | -5.04 log2 (difference from the parental peptide) |
| chain 1 EEDDYTAYQPLTCYFT [chain 1 A9Q] | -0.52 log2 (difference from the parental peptide) |
| chain 1 EEDDYTAYLPLTCYFT [chain 1 A9L] | -6.22 log2 (difference from the parental peptide) |
| chain 1 EEDDYTAYMPLTCYFT [chain 1 A9M] | -5.21 log2 (difference from the parental peptide) |
| chain 1 EEDDYTAYNPLTCYFT [chain 1 A9N] | -5.08 log2 (difference from the parental peptide) |
| chain 1 EEDDYTAYRPLTCYFT [chain 1 A9R] | -5.43 log2 (difference from the parental peptide) |
| chain 1 EEDDYTAYGPLTCYFT [chain 1 A9G] | -5.92 log2 (difference from the parental peptide) |
| chain 1 EEDDYTAYWPLTCYFT [chain 1 A9W] | -3 log2 (difference from the parental peptide) |
| chain 1 EEDDYTAYAPLMCYFT [chain 1 T12M] | -0.791 log2 (difference from the parental peptide) |
| chain 1 EEDDYTAYAPLICYFT [chain 1 T12I] | -1.49 log2 (difference from the parental peptide) |

| Variant | enrichment |
| --- | --- |
| chain 1 EEDDYTAYAPLDCYFT [chain 1 T12D] | -0.0823 log2 (difference from the parental peptide) |
| chain 1 EEDDYTAYAPLECYFT [chain 1 T12E] | -2.48 log2 (difference from the parental peptide) |
| chain 1 EEDDYTAYAPLLCYFT [chain 1 T12L] | -0.228 log2 (difference from the parental peptide) |
| chain 1 EEDDYTAYAPLKCYFT [chain 1 T12K] | -1.81 log2 (difference from the parental peptide) |
| chain 1 EEDDYTAYAPLFCYFT [chain 1 T12F] | -1.45 log2 (difference from the parental peptide) |
| chain 1 EEDDYTAYAPLHCYFT [chain 1 T12H] | -0.868 log2 (difference from the parental peptide) |
| chain 1 EEDDYTAYAPLQCYFT [chain 1 T12Q] | -2.05 log2 (difference from the parental peptide) |
| chain 1 EQDDYTAYAPLTCYFT [chain 1 E2Q] | -3.13 log2 (difference from the parental peptide) |
| chain 1 ENDDYTAYAPLTCYFT [chain 1 E2N] | -2.76 log2 (difference from the parental peptide) |
| chain 1 EWDDYTAYAPLTCYFT [chain 1 E2W] | -0.836 log2 (difference from the parental peptide) |
| chain 1 ETDDYTAYAPLTCYFT [chain 1 E2T] | -2.76 log2 (difference from the parental peptide) |
| chain 1 ERDDYTAYAPLTCYFT [chain 1 E2R] | -4.77 log2 (difference from the parental peptide) |
| chain 1 EDDDYTAYAPLTCYFT [chain 1 E2D] | 1.47 log2 (difference from the parental peptide) |
| chain 1 EMDDYTAYAPLTCYFT [chain 1 E2M] | -2.13 log2 (difference from the parental peptide) |
| chain 1 EPDDYTAYAPLTCYFT [chain 1 E2P] | -5.28 log2 (difference from the parental peptide) |
| chain 1 EEDDYTAYAPLTCVFT [chain 1 Y14V] | -4.97 log2 (difference from the parental peptide) |
| chain 1 EEDDYTAYAPLTCLFT [chain 1 Y14L] | -6.02 log2 (difference from the parental peptide) |
| chain 1 EEDDYTAYAPLTCSFT [chain 1 Y14S] | -6.58 log2 (difference from the parental peptide) |
| chain 1 EEDDYTAYAPLTCAFT [chain 1 Y14A] | -7.68 log2 (difference from the parental peptide) |
| chain 1 EEDDYTAYAPLTCCFT [chain 1 Y14C] | -6.55 log2 (difference from the parental peptide) |
| chain 1 EEDDYTAYAPLTCHFT [chain 1 Y14H] | -5.22 log2 (difference from the parental peptide) |

Variants of: B2

| Variant | enrichment |
| --- | --- |
| chain 1 EEDDYVAYAPLTCYFT [chain 1 T6V] | -3.07 log2 (difference from the parental peptide) |
| chain 1 EEDDYEAYAPLTCYFT [chain 1 T6E] | 2.48 log2 (difference from the parental peptide) |
| chain 1 EEDDYTAYAPLTCGFT [chain 1 Y14G] | -8.38 log2 (difference from the parental peptide) |
| chain 1 EEDDYTAYAPLTCYFF [chain 1 T16F] | -0.482 log2 (difference from the parental peptide) |
| chain 1 EEDDYTAYAPLTCYAT [chain 1 F15A] | 0.456 log2 (difference from the parental peptide) |
| chain 1 EEDDYTAYAPLTCYGT [chain 1 F15G] | -4.09 log2 (difference from the parental peptide) |
| chain 1 EEWDYTAYAPLTCYFT [chain 1 D3W] | -1.95 log2 (difference from the parental peptide) |
| chain 1 EEMDYTAYAPLTCYFT [chain 1 D3M] | -1.4 log2 (difference from the parental peptide) |
| chain 1 EEDDYTAYAPLNCYFT [chain 1 T12N] | -1.81 log2 (difference from the parental peptide) |
| chain 1 AEDDYTAYAPLTCYFT [chain 1 E1A] | -0.823 log2 (difference from the parental peptide) |
| chain 1 EEDDYTAYAPWTCYFT [chain 1 L11W] | 0.64 log2 (difference from the parental peptide) |
| chain 1 EEDDYTAYAPHTCYFT [chain 1 L11H] | 0.897 log2 (difference from the parental peptide) |
| chain 1 EEDDYTNYAPLTCYFT [chain 1 A7N] | -0.0931 log2 (difference from the parental peptide) |
